Data from publication doi:10.1101/2020.09.30.318261 (bioRxiv, 2020).

Molecular target: full-length SARS-CoV-2 spike protein, wildtype, surface expressed (SARS-CoV-2, UniProt P0DTC2)
Assay: flow cytometry on cells

B1: human monoclonal antibody 47D11 (antibody, V domains shown)
VH: QVQLQESGPGLVKPSETLSLTCSVSGGSISSHYWSWIRQPPGKGLEWIGYIYYSGSTNHNPSLKSRVTISVDTSKNQFSLKLSSVTAADTAVYYCARGVLLWFGEPIFEIWGQGTMVTVSS
VL: EIVMTQSPATLSVSPGERATLSCRASQSVSSSLAWYQQKPGQAPRLLIYGASTRAPGIPARFSGSGSGTEFTLTISSLQSEDFAVYYCQQYNNWPLTFGGGTKVEI
B1: binds.
